Results: patent EP0975354B1

Columns and labels:
[1] = molecular target: LH receptor on bovine granulosa cells and small luteal cells (bovine) (UniProt Q28005); assay: cell-based or functional assay
[2] = molecular target: GnRH receptor of rat pituitary membranes (rat) (UniProt P30969); assay: radioligand displacement on rat pituitary membranes, equimolar concentrations; reference native GnRH
UniProt P30969, sequence (P30969 whole entry): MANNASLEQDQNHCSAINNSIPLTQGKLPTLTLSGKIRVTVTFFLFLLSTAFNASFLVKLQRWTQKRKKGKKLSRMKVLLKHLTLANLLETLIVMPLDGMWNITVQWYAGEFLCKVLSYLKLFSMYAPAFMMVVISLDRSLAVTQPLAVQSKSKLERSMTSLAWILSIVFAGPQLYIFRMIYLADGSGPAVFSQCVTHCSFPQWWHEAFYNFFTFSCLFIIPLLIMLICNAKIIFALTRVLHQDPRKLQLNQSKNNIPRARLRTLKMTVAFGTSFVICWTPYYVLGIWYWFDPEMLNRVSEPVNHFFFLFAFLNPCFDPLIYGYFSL

UniProt Q28005, sequence (Q28005 27-701): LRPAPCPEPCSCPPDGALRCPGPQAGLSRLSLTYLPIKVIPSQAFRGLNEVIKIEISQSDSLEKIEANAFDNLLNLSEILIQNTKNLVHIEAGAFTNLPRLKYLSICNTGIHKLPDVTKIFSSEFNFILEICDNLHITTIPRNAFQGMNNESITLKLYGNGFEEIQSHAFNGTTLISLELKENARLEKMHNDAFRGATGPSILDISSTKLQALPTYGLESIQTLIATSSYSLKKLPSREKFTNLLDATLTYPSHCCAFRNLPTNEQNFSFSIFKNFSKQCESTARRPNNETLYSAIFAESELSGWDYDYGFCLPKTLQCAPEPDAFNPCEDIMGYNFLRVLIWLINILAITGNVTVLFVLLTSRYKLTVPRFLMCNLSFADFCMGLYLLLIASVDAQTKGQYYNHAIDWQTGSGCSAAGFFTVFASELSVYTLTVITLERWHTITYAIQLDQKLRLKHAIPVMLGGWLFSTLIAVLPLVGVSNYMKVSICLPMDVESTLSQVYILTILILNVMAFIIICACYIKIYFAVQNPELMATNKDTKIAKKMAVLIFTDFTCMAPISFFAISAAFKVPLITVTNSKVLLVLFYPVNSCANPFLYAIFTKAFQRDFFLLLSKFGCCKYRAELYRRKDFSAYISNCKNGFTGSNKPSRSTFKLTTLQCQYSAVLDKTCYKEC

hecate-bLH conjugate (peptide)
killing of bovine granulosa cells (Trypan Blue exclusion) (fold of the cells killed by hecate alone) [1]: 2 | killing of bovine small luteal cells (Trypan Blue exclusion) (fold of the cells killed by hecate alone) [1]: 2

D-Lys6GnRH (peptide)
displacement of radiolabelled GnRH as percent of the cpm displaced by native GnRH [2]: 187%
